Assay results reported in the Human Domainome abundance scans (Beltran et al. 2025).
± gives the uncertainty stated by the source.

test: abundance fitness (aPCA) (normalised: wild type 0, dead -1); higher = more abundant; growth selection in yeast, the domain comes from the species named; conditions: Homo sapiens

“NEDD4-like E3 ubiquitin-protein ligase WWP2 R460H, O00308” and “NEDD4-like E3 ubiquitin-protein ligase WWP2 K473I, O00308” are within error of each other in abundance fitness: -0.033 ± 0.081 for the first, 0.028 ± 0.07 for the second.

First: NEDD4-like E3 ubiquitin-protein ligase WWP2 H465N, O00308
Second: NEDD4-like E3 ubiquitin-protein ligase WWP2 G482N, O00308
The abundance fitness of the first is lower: -0.208 ± 0.086 for the first, -0.007 ± 0.039 for the second.

“NEDD4-like E3 ubiquitin-protein ligase WWP2 A490F, O00308” and “NEDD4-like E3 ubiquitin-protein ligase WWP2 Y491N, O00308” are within error of each other in abundance fitness: -0.081 ± 0.051 for the first, -0.208 ± 0.076 for the second.

First: NEDD4-like E3 ubiquitin-protein ligase WWP2 R476G, O00308
Second: NEDD4-like E3 ubiquitin-protein ligase WWP2 T470D, O00308
The abundance fitness of the first is higher: -0.206 ± 0.051 for the first, -0.653 ± 0.072 for the second.

Going from “NEDD4-like E3 ubiquitin-protein ligase WWP2 E457W, O00308” to “NEDD4-like E3 ubiquitin-protein ligase WWP2 P448L, O00308”, the abundance fitness rises from -0.624 ± 0.096 to -0.013 ± 0.038.

Going from “NEDD4-like E3 ubiquitin-protein ligase WWP2 G478R, O00308” to “NEDD4-like E3 ubiquitin-protein ligase WWP2 D464N, O00308”, the abundance fitness falls from 0.032 ± 0.047 to -0.138 ± 0.073.

First: NEDD4-like E3 ubiquitin-protein ligase WWP2 E443R, O00308
Second: NEDD4-like E3 ubiquitin-protein ligase WWP2 V463C, O00308
The abundance fitness of the first is higher: -0.174 ± 0.042 for the first, -0.307 ± 0.086 for the second.

Compared with “NEDD4-like E3 ubiquitin-protein ligase WWP2 K453G, O00308”, “NEDD4-like E3 ubiquitin-protein ligase WWP2 E480Y, O00308” is higher in abundance fitness: -0.328 ± 0.052 for the first, 0.036 ± 0.065 for the second.

“NEDD4-like E3 ubiquitin-protein ligase WWP2 S481G, O00308” and “NEDD4-like E3 ubiquitin-protein ligase WWP2 E443C, O00308” are within error of each other in abundance fitness: -0.032 ± 0.047 for the first, 0.004 ± 0.076 for the second.

Going from “NEDD4-like E3 ubiquitin-protein ligase WWP2 K484V, O00308” to “NEDD4-like E3 ubiquitin-protein ligase WWP2 G458E, O00308”, the abundance fitness falls from -0.143 ± 0.046 to -0.367 ± 0.063.

First: NEDD4-like E3 ubiquitin-protein ligase WWP2 P475H, O00308
Second: NEDD4-like E3 ubiquitin-protein ligase WWP2 K484H, O00308
The abundance fitness of the first is lower: -0.813 ± 0.15 for the first, -0.192 ± 0.081 for the second.

“NEDD4-like E3 ubiquitin-protein ligase WWP2 V463Q, O00308” and “NEDD4-like E3 ubiquitin-protein ligase WWP2 P444W, O00308” are within error of each other in abundance fitness: -0.129 ± 0.08 for the first, -0.059 ± 0.05 for the second.

Going from “NEDD4-like E3 ubiquitin-protein ligase WWP2 T469P, O00308” to “NEDD4-like E3 ubiquitin-protein ligase WWP2 T470S, O00308”, the abundance fitness rises from -1.16 ± 0.13 to -0.234 ± 0.036.

Compared with “NEDD4-like E3 ubiquitin-protein ligase WWP2 P477S, O00308”, “NEDD4-like E3 ubiquitin-protein ligase WWP2 G458V, O00308” is lower in abundance fitness: -0.02 ± 0.037 for the first, -0.992 ± 0.065 for the second.

“NEDD4-like E3 ubiquitin-protein ligase WWP2 I441K, O00308” and “NEDD4-like E3 ubiquitin-protein ligase WWP2 T483D, O00308” are within error of each other in abundance fitness: 0.052 ± 0.04 for the first, -0.039 ± 0.06 for the second.

First: NEDD4-like E3 ubiquitin-protein ligase WWP2 F462L, O00308
Second: NEDD4-like E3 ubiquitin-protein ligase WWP2 G486V, O00308
The abundance fitness of the first is lower: -0.9 ± 0.061 for the first, -0.01 ± 0.043 for the second.

“NEDD4-like E3 ubiquitin-protein ligase WWP2 M452E, O00308” and “NEDD4-like E3 ubiquitin-protein ligase WWP2 P444N, O00308” are within error of each other in abundance fitness: 0.046 ± 0.046 for the first, 0.105 ± 0.038 for the second.

Going from “NEDD4-like E3 ubiquitin-protein ligase WWP2 G486R, O00308” to “NEDD4-like E3 ubiquitin-protein ligase WWP2 Y454M, O00308”, the abundance fitness falls from -0.028 ± 0.037 to -0.185 ± 0.063.

Going from “NEDD4-like E3 ubiquitin-protein ligase WWP2 G486W, O00308” to “NEDD4-like E3 ubiquitin-protein ligase WWP2 F479K, O00308”, the abundance fitness rises from -0.187 ± 0.049 to -0.015 ± 0.051.

First: NEDD4-like E3 ubiquitin-protein ligase WWP2 S481P, O00308
Second: NEDD4-like E3 ubiquitin-protein ligase WWP2 R476F, O00308
The abundance fitness of the first is higher: 0.003 ± 0.049 for the first, -0.505 ± 0.084 for the second.

First: NEDD4-like E3 ubiquitin-protein ligase WWP2 A490I, O00308
Second: NEDD4-like E3 ubiquitin-protein ligase WWP2 G449W, O00308
The abundance fitness of the first is higher: 0.089 ± 0.077 for the first, -0.283 ± 0.053 for the second.

Compared with “NEDD4-like E3 ubiquitin-protein ligase WWP2 P477C, O00308”, “NEDD4-like E3 ubiquitin-protein ligase WWP2 L446Q, O00308” is lower in abundance fitness: -0.084 ± 0.066 for the first, -0.491 ± 0.058 for the second.

First: NEDD4-like E3 ubiquitin-protein ligase WWP2 G486M, O00308
Second: NEDD4-like E3 ubiquitin-protein ligase WWP2 G482F, O00308
The abundance fitness of the first is higher: -0.01 ± 0.036 for the first, -0.124 ± 0.06 for the second.

“NEDD4-like E3 ubiquitin-protein ligase WWP2 Y454E, O00308” and “NEDD4-like E3 ubiquitin-protein ligase WWP2 K484Y, O00308” are within error of each other in abundance fitness: -0.046 ± 0.052 for the first, -0.071 ± 0.029 for the second.

First: NEDD4-like E3 ubiquitin-protein ligase WWP2 R493Y, O00308
Second: NEDD4-like E3 ubiquitin-protein ligase WWP2 V463N, O00308
The abundance fitness of the first is higher: -0.055 ± 0.055 for the first, -0.386 ± 0.056 for the second.

Going from “NEDD4-like E3 ubiquitin-protein ligase WWP2 T483F, O00308” to “NEDD4-like E3 ubiquitin-protein ligase WWP2 D474R, O00308”, the abundance fitness rises from -0.377 ± 0.072 to -0.19 ± 0.039.

Going from “NEDD4-like E3 ubiquitin-protein ligase WWP2 K473H, O00308” to “NEDD4-like E3 ubiquitin-protein ligase WWP2 W450S, O00308”, the abundance fitness falls from -0.1 ± 0.055 to -0.676 ± 0.057.

“NEDD4-like E3 ubiquitin-protein ligase WWP2 H465S, O00308” and “NEDD4-like E3 ubiquitin-protein ligase WWP2 P488I, O00308” are within error of each other in abundance fitness: -0.247 ± 0.034 for the first, -0.163 ± 0.069 for the second.

Going from “NEDD4-like E3 ubiquitin-protein ligase WWP2 H465C, O00308” to “NEDD4-like E3 ubiquitin-protein ligase WWP2 R468H, O00308”, the abundance fitness rises from -0.411 ± 0.067 to -0.015 ± 0.08.

First: NEDD4-like E3 ubiquitin-protein ligase WWP2 G489D, O00308
Second: NEDD4-like E3 ubiquitin-protein ligase WWP2 K473N, O00308
The abundance fitness of the first is higher: -0.02 ± 0.053 for the first, -0.402 ± 0.095 for the second.

Compared with “NEDD4-like E3 ubiquitin-protein ligase WWP2 R468G, O00308”, “Transcription factor SOX-11 E103S, P35716” is lower in abundance fitness: -0.2 ± 0.033 for the first, -0.684 ± 0.072 for the second.

First: NEDD4-like E3 ubiquitin-protein ligase WWP2 Y454F, O00308
Second: NEDD4-like E3 ubiquitin-protein ligase WWP2 T471V, O00308
The abundance fitness of the first is higher: -0.083 ± 0.059 for the first, -0.546 ± 0.054 for the second.
